# T1: recombinant IL-3Rα ectodomain (human, UniProt P26951 19-305)
# T1 construct: extracellular domain; also called recombinant IL-3Ra; biotinylated-IL-3Rα ectodomain
# T1 sequence (looked up): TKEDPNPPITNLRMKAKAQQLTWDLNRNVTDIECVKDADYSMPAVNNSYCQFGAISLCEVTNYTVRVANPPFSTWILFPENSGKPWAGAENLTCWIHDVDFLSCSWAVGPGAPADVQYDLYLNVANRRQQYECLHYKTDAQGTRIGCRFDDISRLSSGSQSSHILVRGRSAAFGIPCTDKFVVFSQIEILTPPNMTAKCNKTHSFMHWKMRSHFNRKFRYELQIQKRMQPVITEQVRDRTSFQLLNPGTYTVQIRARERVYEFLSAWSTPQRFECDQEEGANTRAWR
# T2: recombinant human CEACAM5 (human, UniProt P06731 35-685)
# T2 construct: also called hCEACAM-5; R&D Systems 4128-CM
# T2 sequence (looked up): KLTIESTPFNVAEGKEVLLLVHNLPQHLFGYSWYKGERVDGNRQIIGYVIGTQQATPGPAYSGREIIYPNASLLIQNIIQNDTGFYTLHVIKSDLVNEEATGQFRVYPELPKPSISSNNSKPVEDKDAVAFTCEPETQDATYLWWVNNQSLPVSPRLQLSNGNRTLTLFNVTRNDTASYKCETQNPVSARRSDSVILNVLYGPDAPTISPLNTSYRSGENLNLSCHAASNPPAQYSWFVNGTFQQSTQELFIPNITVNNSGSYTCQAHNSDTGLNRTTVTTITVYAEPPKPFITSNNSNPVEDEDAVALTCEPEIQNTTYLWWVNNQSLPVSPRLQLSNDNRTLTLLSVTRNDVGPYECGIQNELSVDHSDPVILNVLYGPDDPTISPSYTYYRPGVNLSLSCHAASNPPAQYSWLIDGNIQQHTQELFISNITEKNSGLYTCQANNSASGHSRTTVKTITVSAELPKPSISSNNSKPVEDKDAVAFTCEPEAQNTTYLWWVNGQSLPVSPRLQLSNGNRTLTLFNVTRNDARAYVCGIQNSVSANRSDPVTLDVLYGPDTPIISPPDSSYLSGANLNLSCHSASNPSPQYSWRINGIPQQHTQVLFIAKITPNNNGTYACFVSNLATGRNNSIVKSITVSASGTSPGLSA
# B1: 57A07-35GS-14D09 (bispecific antibody)
# chain: EVQLVESGGGLVQAGGSLRLSCAASGSIFSGNVMGWYRRQAPGKEREWVAAIASGGSIYYRDSVKGRFTISRDNAKNTVYLQMNSLKPEDTAVYYCNSHPPTLPYWGQGTLVTVSSGGGGSGGGGSGGGGSGGGGSGGGGSGGGGSGGGGSEVQLVESGGGLVQAGGSLRLSCVASGISSSKRNMGWYRQAPGKQRESVATISSGGNKDYTDAVKDRFTISRDTTKNTVYLQMNSLKPEDTAVYYCKIEAGTGWATRRGYTYWGQGTLVTVSS
# notes: FLAG3-His6 also made; also called CD123#1-CXCR4#1; 57A07-14D09
# B2: CEA#2 (VHH)
# VHH: EVQLVESGGGLVQPGGSLRLSCAASGDTYGSYWMGWFRQAPGQGLEAVAAINRGGGYTVYADSVKGRFTISRDNSKNTLYLQMNSLRAEDTAVYYCAASGVLGGLHEDWFNYWGQGTLVTVSS
# notes: also called T023200002; humanised variant of NbCEA5
# B3: 03F11-9GS-281F12 (bispecific antibody)
# chain: EVQLVESGGGSVQPGGSLTLSCGTSGRTFNVMGWFRQAPGKEREFVAAVRWSSTGIYYTQYADSVKSRFTISRDNAKNTVYLEMNSLKPEDTAVYYCAADTYNSNPARWDGYDFRGQGTQVTVSSGGGGSGGGGSEVQLVESGGGLVQAGDSLRLSCAASGRAFSRYAMGWFRQAPGKEREFVAAIGWGPSKTNYADSVKGRFTISRDNAKNTVYLQMNTLKPEDTAVYSCAAKFVNTDSTWSRSEMYTYWGQGTQVTVSS
# B4: 55A01-35GS-14D09 (bispecific antibody)
# chain: EVQLVESGGGSVQAGGSLRLSCTTSGRALNMYVMGWFRQAPGNEREFVAATSSSGGSTSYPDSVKGRFTISRDNAKNTVYLQMNSLKPEDTAAYRCAASPYVSTPTMNILEEYRYWGQGTLVTVSSGGGGSGGGGSGGGGSGGGGSGGGGSGGGGSGGGGSEVQLVESGGGLVQAGGSLRLSCVASGISSSKRNMGWYRQAPGKQRESVATISSGGNKDYTDAVKDRFTISRDTTKNTVYLQMNSLKPEDTAVYYCKIEAGTGWATRRGYTYWGQGTLVTVSS
# notes: FLAG3-His6 also made; also called CD123#2-CXCR4#1; 55A01-14D09
# B5: 51D09 (VHH)
# VHH: EVQLVESGGGLVQPGGSLRLSCAASGSIFSGNTMGWYRQAPGKQRELVAAISSGGSTDYADSVKGRFTISRDNSKNTVYLQMNSLRPEDTAVYYCNAAILLYRLYGYEEGDYWGLGTLVTVSS
# B6: 281F12-35GS-57A07 (bispecific antibody)
# chain: EVQLVESGGGLVQAGDSLRLSCAASGRAFSRYAMGWFRQAPGKEREFVAAIGWGPSKTNYADSVKGRFTISRDNAKNTVYLQMNTLKPEDTAVYSCAAKFVNTDSTWSRSEMYTYWGQGTLVTVSSGGGGSGGGGSGGGGSGGGGSGGGGSGGGGSGGGGSEVQLVESGGGLVQAGGSLRLSCAASGSIFSGNVMGWYRRQAPGKEREWVAAIASGGSIYYRDSVKGRFTISRDNAKNTVYLQMNSLKPEDTAVYYCNSHPPTLPYWGQGTLVTVSS
# notes: FLAG3-His6 also made; also called CXCR4#2-CD123#1; 281F12-57A07
# B7: 03F11-25GS-281F12 (bispecific antibody)
# chain: EVQLVESGGGSVQPGGSLTLSCGTSGRTFNVMGWFRQAPGKEREFVAAVRWSSTGIYYTQYADSVKSRFTISRDNAKNTVYLEMNSLKPEDTAVYYCAADTYNSNPARWDGYDFRGQGTQVTVSSGGGGSGGGGSGGGGSGGGGSGGGGSEVQLVESGGGLVQAGDSLRLSCAASGRAFSRYAMGWFRQAPGKEREFVAAIGWGPSKTNYADSVKGRFTISRDNAKNTVYLQMNTLKPEDTAVYSCAAKFVNTDSTWSRSEMYTYWGQGTQVTVSS
# B8: 14D09-35GS-57A07 (bispecific antibody)
# chain: EVQLVESGGGLVQAGGSLRLSCVASGISSSKRNMGWYRQAPGKQRESVATISSGGNKDYTDAVKDRFTISRDTTKNTVYLQMNSLKPEDTAVYYCKIEAGTGWATRRGYTYWGQGTLVTVSSGGGGSGGGGSGGGGSGGGGSGGGGSGGGGSGGGGSEVQLVESGGGLVQAGGSLRLSCAASGSIFSGNVMGWYRRQAPGKEREWVAAIASGGSIYYRDSVKGRFTISRDNAKNTVYLQMNSLKPEDTAVYYCNSHPPTLPYWGQGTLVTVSS
# notes: also made with FLAG3-His6 in Pichia; also called CXCR4#1-CD123#1; 14D09-57A07
# B9: 50F07 (VHH)
# VHH: EVQLVESGGGLVQPGGSLRLSCTGSGSTFSINAMGWYRQAPGKQRELVAAITSGGRTNYADSVKGRFTISRDNSKNTVYLQMNSLRPEDTAVYYCNARISAGTAFWLWSDYEYWGLGTLVTVSS
# B10: 55F03 (VHH)
# VHH: EVQLVESGGGLVQAGGPLRLSCAASGRTFSSYVMGWFRQAPGKEREFVAAIYWSNGKTQYTDSVKGRFTISGDNAKNTVYLQMNSLNPEDTAVYYCVADKDETGFRTLPIAYDYWGLGTQVTVSS
# B11: 55C05 (VHH)
# VHH: EVQLVESGGGLVPAGDSLRLSCVASGRSLNTYTMGWFRQAPGKECEFVAAINWNGVYRDYADSAKGRFTASRDNAMNTVFLQMNSLKPEDTAVYFCATATQGWDRHTEPSDFGSWGLGTQVTVSS
# B12: cAbLys3 (VHH)
# VHH: DVQLQASGGGSVQAGGSLRLSCAASGYTIGPYCMGWFRQAPGKEREGVAAINMGGGITYYADSVKGRFTISQDNAKNTVYLLMNSLEPEDTAIYYCAADSTIYASYYECGHGLSTGGYGYDSWGQGTQVTVSS
# notes: also called irrelevant control Nanobody directed to lysozyme
# B13: 55B04 (VHH)
# VHH: EVQLVESGGGLVQPGGSLRLSCAASGINFRFNSMGWWRRRAPGKEREWVAAITSGDITNYRDSVRGRFTISRDNVKNTVYLQMNTLKLEDTAVYYCNTFPPIADYWGLGTQVTVSS
# Key:
# [1] = biological target: human CXCR4 (on cells, viral lipoparticles or membrane extracts) (human, UniProt P61073 1-352); experiment: cell-based or functional assay
# human CXCR4 (on cells, viral lipoparticles or membrane extracts), sequence (P61073 whole entry, the tested form may be a part): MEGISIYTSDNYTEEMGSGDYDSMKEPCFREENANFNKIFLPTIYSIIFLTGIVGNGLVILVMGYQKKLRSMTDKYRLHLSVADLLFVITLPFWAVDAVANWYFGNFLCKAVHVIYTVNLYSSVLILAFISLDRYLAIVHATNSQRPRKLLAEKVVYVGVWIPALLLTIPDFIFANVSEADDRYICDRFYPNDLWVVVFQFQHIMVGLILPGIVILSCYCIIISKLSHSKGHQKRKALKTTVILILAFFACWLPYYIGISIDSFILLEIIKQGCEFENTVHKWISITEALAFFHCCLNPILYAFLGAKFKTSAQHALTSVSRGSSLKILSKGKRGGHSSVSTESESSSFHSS
# [2] = biological target: T1, recombinant IL-3Rα ectodomain; experiment: ELISA on recombinant IL-3Ra ectodomain (lower right panel)
# [3] = biological target: T2, recombinant human CEACAM5; experiment: SPR Biacore T100, immobilised hCEACAM-5
# [4] = biological target: CXCR4 and CD4 co-expressed on cells (MOLM-13, THP-1, MT-4, PBMC; Jurkat CD4 low) (human, UniProt P61073 1-352; P01730 26-458); experiment: cell-based or functional assay
# CXCR4 and CD4 co-expressed on cells (MOLM-13, THP-1, MT-4, PBMC; Jurkat CD4 low), sequence (P61073 whole entry, chain 1 of 2, other chains not shown, the tested form may be a part): as the sequence (P61073 whole entry, the tested form may be a part) above
# [5] = biological target: T1, recombinant IL-3Rα ectodomain; experiment: ELISA on recombinant IL-3Ra ectodomain (panel 'IL-3Ra ELISA', lower left)
# [6] = biological target: T3, human IL-3Rα (CD123), cell-expressed (human, UniProt P26951 19-378); experiment: FACS, MOLM-13 cells
# T3 construct: whole, on cells; also called IL-3Ra; Hek-IL-3Rα
# T3 sequence (P26951 19-378): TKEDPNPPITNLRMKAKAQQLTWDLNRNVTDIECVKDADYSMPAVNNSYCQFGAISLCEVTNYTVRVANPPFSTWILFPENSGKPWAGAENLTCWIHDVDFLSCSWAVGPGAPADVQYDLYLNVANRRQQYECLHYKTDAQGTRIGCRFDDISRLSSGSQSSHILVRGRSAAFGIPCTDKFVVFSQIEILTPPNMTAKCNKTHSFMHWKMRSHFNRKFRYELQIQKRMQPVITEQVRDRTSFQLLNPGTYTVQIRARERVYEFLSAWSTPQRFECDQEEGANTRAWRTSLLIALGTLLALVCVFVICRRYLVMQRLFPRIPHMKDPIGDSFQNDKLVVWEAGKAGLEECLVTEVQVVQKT
# [7] = biological target: T1, recombinant IL-3Rα ectodomain; experiment: SPR ProteOn, immobilised IL-3Rα ectodomain
# [8] = biological target: T3, human IL-3Rα (CD123), cell-expressed; experiment: flow cytometry on Molm-13 cells; EC50(M) printed in the legend box beside the curves
# [9] = biological target: T1, recombinant IL-3Rα ectodomain; experiment: competition ELISA, coated mAb 7G3 + biotinylated IL-3Rα ectodomain
# [10] = biological target: T4, human IL12Rβ1, cell-expressed (human, UniProt P42701 24-662); experiment: flow cytometry on isolated CD8+ T cells of donor D863, anti-Flag detection
# T4 construct: whole, on cells; in the context of the heterodimeric receptor; also called IL12Rb1
Binder,"IC50, CXCL-12 chemotaxis, Jurkat E6-1 [1]",EC50 [6],Kd [7],koff [7],kon [7],EC50 [8],also measured
B1,210 nM,–,–,–,–,–,"Fold inc. vs CXCR4#1, Jurkat E6-1 [1]: 0.05 fold; EC50 (read off the curve) [2]: ~0.5 nM"
B2,–,–,–,–,–,–,Kd [3]: 1.9 nM; koff [3]: 0.0025 s⁻¹; kon [3]: 1.3e+06 M⁻¹ s⁻¹
B3,–,–,–,–,–,–,"IC50, HIV-1 BaL (R5), PBMC [4]: > 666 nM; IC50, HIV-1 NL4.3 (X4), MT-4 [4]: 14.9 nM; IC50, HIV-1 NL4.3 (X4), PBMC [4]: 17 nM; IC50, HIV-1 NL4.3 (X4), U87 [4]: > 3330 nM"
B4,85 nM,–,–,–,–,–,"Fold inc. vs CXCR4#1, Jurkat E6-1 [1]: 0.12 fold; Fold inc. vs CXCR4#1, MOLM-13 [1]: 0.03 fold; IC50, CXCL-12 chemotaxis, MOLM-13 [1]: 290 nM; EC50 (read off the curve) [5]: ~1 nM"
B5,–,15.3 nM,13.6 nM,0.000516 s⁻¹,37800 M⁻¹ s⁻¹,16 nM,–
B6,38 nM,–,–,–,–,–,"Fold inc. vs CXCR4#2, Jurkat E6-1 [1]: 2.55 fold; Fold inc. vs CXCR4#2, MOLM-13 [1]: 12.6 fold; IC50, CXCL-12 chemotaxis, MOLM-13 [1]: 6.83 nM; EC50 (read off the curve) [2]: ~0.5 nM"
B7,–,–,–,–,–,–,"IC50, HIV-1 BaL (R5), PBMC [4]: 383 nM; IC50, HIV-1 NL4.3 (X4), MT-4 [4]: 9.22 nM; IC50, HIV-1 NL4.3 (X4), PBMC [4]: 8.67 nM; IC50, HIV-1 NL4.3 (X4), U87 [4]: > 3330 nM"
B8,15 nM,–,–,–,–,–,"Fold inc. vs CXCR4#1, Jurkat E6-1 [1]: 0.69 fold; Fold inc. vs CXCR4#1, MOLM-13 [1]: 2.39 fold; IC50, CXCL-12 chemotaxis, MOLM-13 [1]: 3.6 nM; EC50 (read off the curve) [2]: ~0.5 nM"
B9,–,14.6 nM,74.2 nM,0.00758 s⁻¹,102000 M⁻¹ s⁻¹,66 nM,IC50 [9]: 230 nM
B10,–,113 nM,115 nM,0.00487 s⁻¹,42500 M⁻¹ s⁻¹,350 nM,–
B11,–,31.2 nM,59 nM,0.00741 s⁻¹,126000 M⁻¹ s⁻¹,4100 nM,IC50 [9]: 190 nM
B12,–,–,–,–,–,–,binding result [10]: no binding (tested: 250 nM)
B13,–,51.2 nM,15.8 nM,0.00794 s⁻¹,504000 M⁻¹ s⁻¹,1300 nM,IC50 [9]: 55 nM

# Reference: patent publication US20160251440A1 (Ablynx, published 2016)
